In patent US9012420B2, “Aptamer for chymase, and use thereof” (Ribomic Inc., priority 2009, dated 2015):
Oligonucleotides are written 5' to 3', each unit as a sugar letter and its base; * is a phosphorothioate linkage, no mark a phosphodiester; rarer units and linkages stand in square brackets, end groups in braces. Plain capitals give the bases only. r = 2'-OH (RNA); f = 2'-fluoro

T1: chymase (recombinant, manufactured by SIGMA) (Homo sapiens, UniProt P23946)
T1 construct: purchased SIGMA; host or cells: yeast
T1 sequence (P23946 22-247): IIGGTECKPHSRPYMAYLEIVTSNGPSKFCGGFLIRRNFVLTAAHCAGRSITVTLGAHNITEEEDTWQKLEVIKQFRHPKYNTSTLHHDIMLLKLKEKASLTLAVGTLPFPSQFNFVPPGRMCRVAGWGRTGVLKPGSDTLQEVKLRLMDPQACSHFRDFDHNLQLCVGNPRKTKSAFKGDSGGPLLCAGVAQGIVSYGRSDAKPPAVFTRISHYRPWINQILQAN

T2: chymase (recombinant) (UniProt P23946 P23946:22-247)
T2 sequence: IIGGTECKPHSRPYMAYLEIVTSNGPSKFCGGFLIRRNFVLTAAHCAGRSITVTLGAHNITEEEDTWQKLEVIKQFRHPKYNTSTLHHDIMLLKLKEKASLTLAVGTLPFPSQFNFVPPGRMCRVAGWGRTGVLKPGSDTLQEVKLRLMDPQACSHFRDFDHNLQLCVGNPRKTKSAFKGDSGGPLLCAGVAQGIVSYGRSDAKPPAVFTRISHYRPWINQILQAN

B1: SEQ 26 (ssRNA)
RNA: GGGACGGUAGGAAUUCGUCGAUUCUACAGAUAGAGAUAAAGUAGAAUUUAACAAAACAUAGAAGAGCGGCCGC
modifications: 2'-F pyrimidines
B2: SEQ 9 (ssRNA)
RNA: GGGACGGUAGGAAUUCCCGAAAAGCAACAAGCUUGCUAAAAUGAUUCCGAAAAAACACAUAGAAGAGCGGCCGC
modifications: 2'-F pyrimidines
B3: SEQ 17 (ssRNA)
RNA: GGGACGGUAGGAAUUCCGUUCGCAGAAACGAACUUUUAAAAAAUGUACGUGGGAGCACAUAGAAGAGCGGCCGC
modifications: 2'-F pyrimidines
B4: SEQ 6 (ssRNA)
RNA: GGGACGGUAGGAAUUCUACGGUCUGUGUGAAAUUGAAACACACAAAGAACAAUAGACAUAGAAGAGCGGCCGC
modifications: 2'-F pyrimidines
B5: SEQ 8 (ssRNA)
RNA: GGGACGGUAGGAAUUCUACGGUCUGUGUGAAAUUGAAACACACAAAGAACAAUAAACAUAGAAGAGCGGCCGC
modifications: 2'-F pyrimidines
B6: SEQ 25 (ssRNA)
RNA: GGGACGGUAGGAAUUCAGCUGACUCCAAUGCACACGUAGAUAGAGUUAAAACGUUGCAUAGAAGAGCGGCCGC
modifications: 2'-F pyrimidines
B7: SEQ 24 (ssRNA)
RNA: GGGACGGUAGGAAUUCCCUUCAUAGUAGAAUGUUGGUUUCUACAAAAGCGACAAGCAUAGAAGAGCGGCCGC
modifications: 2'-F pyrimidines
B8: SEQ 12 (ssRNA)
RNA: GGGACGGUAGGAAUUCGCCGUCAACGUUACAUAAUGUAUAUACCAGGGUAACUAAACAUAGAAGAGCGGCCGC
modifications: 2'-F pyrimidines
B9: SEQ 30 (ssRNA)
RNA: GGGACGGUAGGAAUUCGUCCCUCUUGUCUAUUUUGCAGAUAGACUUAAAGCAAACAUAGAAGAGCGGCCGC
modifications: 2'-F pyrimidines
B10: SEQ 19 (ssRNA)
RNA: GGGACGGUAGGAAUUCCCACUGCAAUUCAGCAGAAAAAAUUCCGAAAAACACACACCAUAGAAGAGCGGCCGC
modifications: 2'-F pyrimidines
B11: SEQ 23 (ssRNA)
RNA: GGGACGGUAGGAAUUCAUAUGUACUCCGUCCUGACAAAAUGUCAAUGACAAACGUUCAUAGAAGAGCGGCCGC
modifications: 2'-F pyrimidines
B12: SEQ 11 (ssRNA)
RNA: GGGACGGUAGGAAUUCCCGACACGAAAUGUGUGAUUAAUUCCGAACAACAAAGUAACAUAGAAGAGCGGCCGC
modifications: 2'-F pyrimidines
B13: SEQ 5 (ssRNA)
RNA: GGGACGGUAGGAAUUCCCACUUGUCUUUGAGGCAAGAAAUUGUAUUCCGAAGAAGCAUAGAAGAGCGGCCGC
modifications: 2'-F pyrimidines
B14: SEQ 18 (ssRNA)
RNA: GGGACGGUAGGAAUUCGAACGACAAAUUAUAGAACUUCGUUUGACAUUCCACACCACAUAGAAGAGCGGCCGC
modifications: 2'-F pyrimidines
B15: SEQ 14 (ssRNA)
RNA: GGGACGGUAGGAAUUCUCGUUCCUGACAGCAUUUGAGAUAGAUUUAAACAAACGCACAUAGAAGAGCGGCCGC
modifications: 2'-F pyrimidines
B16: SEQ 15 (ssRNA)
RNA: GGGACGGUAGGAAUUCCCAGAAAAUAAAUUCCGAAGAAAACAACAAUUUUUGCAAACAUAGAAGAGCGGCCGC
modifications: 2'-F pyrimidines

Key:
[1] = biological target: T1, chymase (recombinant, manufactured by SIGMA); test: Surface plasmon resonance (Biacore T100), chymase immobilized on CM5 chip, nucleic acid injected as analyte; assay type: binding; parameters: key to binding activity using Biacore: ++: significant binding to chymase than SEQ ID NO: 58 which is a negative control; +: similar binding level as SEQ ID NO: 58 which is a negative control; settings: Table 5; same manner as Example 4; compared with SEQ ID NO: 58
Description: In another method, chymase is first immobilized onto a sensor chip, the amount immobilized being about 4000 RU. 20 μL of an aptamer solution for analyte, prepared at 0.01 μg/μL, is injected, and the binding of the aptamer to chymase is detected. An RNA containing a random nucleotide sequence of 30 or 40 nucleotides is used as a negative control.
Whether these nucleic acids bind to chymase was determined by the surface plasmon resonance method. Measurements were taken using Biacore T100 (manufactured by GE Healthcare) as described below. About 4000 RU of chymase (recombinant, manufactured by SIGMA) was immobilized on the sensor chip surface of a CM5 chip, using an amine coupling kit. 20 μL of each nucleic acid, prepared at 0.3 μM, as an analyte was injected at a flow rate of 20 μL/min. Solution C was used as a running buffer. The method of evaluation used was the same as Example 1.
All nucleic acids of SEQ ID NO: 58-68 were prepared by chemical synthesis. Whether these nucleic acids are bound to chymase was assessed by surface plasmon resonance method in the same manner as in Example 4. The inhibitory activity on chymase was measured in the same manner as in Example 3.
All nucleic acids of SEQ ID NOs: 73-79, 56(8), 80, 56(10), 81, 56(13)-56(14), 83-87 were prepared by chemical synthesis. Whether these nucleic acids are bound to chymase was assessed by surface plasmon resonance method in the same manner as in Example 4.
All nucleic acids of SEQ ID NO: 88-120, 121, 69, 122, 123, 70-72, 124-131 were prepared by chemical synthesis. Whether these nucleic acids are bound to chymase was assessed by surface plasmon resonance method in the same manner as in Example 4.

[2] = biological target: T1, chymase (recombinant, manufactured by SIGMA); test: Chymase inhibitory activity using synthetic substrate Suc-Ala-Ala-Pro-Phe-MCA; assay type: biochemical; settings: Table 5; same manner as Example 3; mean value of two measurements
In short: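 Human recombinant chymase (16.7 nM or 1.67 nM final) preincubated 5 min at 37° C., then added to nucleic acid (0.0027–2 μM serial dilutions) and 100 μM substrate in solution C. AMC fluorescence (ex 380/em 460 nm) followed 5 or 30 min at 37° C.; slope gives initial velocity, inhibition versus no-inhibitor control yields IC50.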

[3] = biological target: T2, chymase (recombinant); test: inhibition; SPR ++; settings: tags: SIGMA, expressed in yeast
Description: (§1) Here, Suc is a protecting succinyl group, and MCA is a 4-methylcoumaryl-7-amide group; upon cleavage of the C-terminal side of phenylalanine, AMC (7-amino-4-methyl-coumarine) is released. By detecting the fluorescence of this AMC, the enzyme activity of chymase can be determined. The assay was performed using a 96-well plate (F16 Black Maxisorp Fluoronunc, manufactured by Nunc), with a reaction mixture volume of 100 μL, in solution C as a buffer solution. First, each nucleic acid was serially diluted to 0.0027-2 μM concentrations in solution C to obtain 50 μL solutions. After 10 μL of the 1 mM substrate prepared in solution C was added thereto, the plate was set to the microplate reader SpectraMax190 (manufactured by Molecular Devices Corporation), and incubated at 37° C. for 5 minutes. Separately, 0.05 μg (or 0.005 μg) of chymase (recombinant, manufactured by SIGMA) was diluted in solution C to obtain a 40 μL chymase solution, and incubated at 37° C. for 5 minutes. The chymase solution was added to the mixture of the nucleic acid and substrate to initiate an enzyme reaction. The final chymase concentration in the reaction mixture was 16.7 nM (or 1.67 nM), the final substrate concentration being 100 μM. The plate containing the reaction mixture was set to the microplate reader SpectraMax190 (manufactured by Molecular Devices Corporation), and examined for time-dependent changes in the fluorescence intensity at 37° C. for 5 minutes (or 30 minutes) (excitation wavelength 380 nm, detection wavelength 460 nm). A linear approximation of the increase in the fluorescence of the AMC released from the substrate by chymase activity was generated, and its slope was taken as the initial velocity […]. For control, samples were treated and analyzed in the same manner in two cases: use of a 30N or 40N (a nucleotide of 30 or 40 consecutive bases represented by N; N is A, G, C or T) nucleic acid pool (negative control), and use of chymostatin, a known chymotrypsin-like serine protease inhibitor (positive control). Taking the initial reaction velocity without the nucleic acid and inhibitor (V_0) as a 100% enzyme activity, the inhibitory rate of each test substance was calculated using the following equation: […]
The inhibitory activity on chymase was measured in the same manner as in Example 3.

[4] = biological target: T2, chymase (recombinant); test: inhibition; SPR ++; settings: tags: SIGMA, expressed in yeast; remark: listed apart in the source
Description: as §1

| Molecule | IC50 [3] | IC50 [4] | other results |
| --- | --- | --- | --- |
| 63 (rGfCfUrAfCrArGrAfUrArGrArGfUfUrArArArGfUrArGfC) [compound 63] |  |  | binding activity using Biacore [1]: ++; IC50 [2]: 0.023 ± 0.003 µM |
| 64 (rGfUfCrAfCrArGrAfUrArGrArGfUfUrArArArGfUrGrAfC) [compound 64] |  |  | binding activity using Biacore [1]: ++; IC50 [2]: 0.02 ± 0.005 µM |
| 66 (GGGUUAGAUCGAGUUAAAAACCC; listed as RNA, chemistry not fully specified) [compound 66] |  |  | binding activity using Biacore [1]: +; IC50 [2]: > 1 µM |
| 67 (GGGUUAGAUACAGUUAAAAACCC; listed as RNA, chemistry not fully specified) [compound 67] |  |  | binding activity using Biacore [1]: +; IC50 [2]: > 1 µM |
| 68 (GGGUUAGAUAGUGUUAAAAACCC; listed as RNA, chemistry not fully specified) [compound 68] |  |  | binding activity using Biacore [1]: +; IC50 [2]: > 1 µM |
| GGGUUAGAUAGAGUUAAAAACCC (ssRNA, 2'-F pyrimidines; 2'-OMe G1-G3) [56(2)] | 0.024 µM |  |  |
| GGGUUAGAUAGAGUUAAAAACCC (ssRNA, 2'-F pyrimidines; 2'-OMe A10) [56(4)] | 0.027 µM |  |  |
| B1 |  | 0.106 µM |  |
| GGGUUAGAUAGAGUUAAAAACCC (ssRNA, 2'-F pyrimidines; 2'-OMe A8) [56(7)] | 0.038 µM |  |  |
| B2 |  | 0.273 µM |  |
| GGGUUAGAUAGAGUUAAAAACCC (ssRNA, 2'-F pyrimidines; 2'-OMe A18) [56(11)] | 0.028 µM |  |  |
| B3 |  | 0.092 µM |  |
| B4 |  | 0.456 µM |  |
| B5 |  | 0.453 µM |  |
| GGGUUAGAUAGAGUUAAAAACCC (ssRNA, 2'-F pyrimidines; 2'-OMe G7) [56(6)] | 0.031 µM |  |  |
| GGGUUAGAUAGAGUUAAAAACCC (ssRNA, 2'-F pyrimidines; 2'-OMe A16,A17) [56(5)] | 0.029 µM |  |  |
| B6 |  | 0.079 µM |  |

| Molecule | IC50 [3] | IC50 [4] | other results |
| --- | --- | --- | --- |
| B7 |  | 0.092 µM |  |
| GGGUUAGAUAGAGUUAAAAACCC (ssRNA, 2'-F pyrimidines; 2'-OMe A19,A20) [56(3)] | 0.025 µM |  |  |
| B8 |  | 0.128 µM |  |
| B9 |  | 0.147 µM |  |
| B10 |  | 0.163 µM |  |
| B11 |  | 0.238 µM |  |
| B12 |  | 0.145 µM |  |
| B13 |  | 0.08 µM |  |
| GGGUUAGAUAGAGUUAAAAACCC (ssRNA, 2'-F pyrimidines; 2'-OMe G13) [56(12)] | 0.035 µM |  |  |
| GGGUUAGAUAGAGUUAAAAACCC (ssRNA, 2'-F pyrimidines; PS between A6 and G7) [56(19)] | 0.008 µM |  |  |
| GGGUUAGAUAGAGUUAAAAACCC (ssRNA, 2'-F pyrimidines; PS between U5 and A6) [56(18)] | 0.012 µM |  |  |
| B14 |  | 0.058 µM |  |
| B15 |  | 0.061 µM |  |
| GGGUUAGAUAGAGUUAAAAACCC (ssRNA, 2'-F pyrimidines; 5' and 3' idT) [56(1)] | 0.026 µM |  |  |
| GGGUUAGAUAGAGUUAAAAACCC (ssRNA, 2'-F pyrimidines; 2'-OMe A12) [56(9)] | 0.111 µM |  |  |
| B16 |  | 0.285 µM |  |
